T1: PTPRG-Fc (ECD of human PTPRG, aa 20-736, fused to human Fc gamma 1) (human, UniProt P23470 20-736)
T1 construct: Made in-house in Expi293 cells; Used in ELISA and SPR; also called recombinant PTPRG-Fc; PTRPG; not shown: human IgG1 Fc (Fc gamma 1) after the hinge
T1 sequence: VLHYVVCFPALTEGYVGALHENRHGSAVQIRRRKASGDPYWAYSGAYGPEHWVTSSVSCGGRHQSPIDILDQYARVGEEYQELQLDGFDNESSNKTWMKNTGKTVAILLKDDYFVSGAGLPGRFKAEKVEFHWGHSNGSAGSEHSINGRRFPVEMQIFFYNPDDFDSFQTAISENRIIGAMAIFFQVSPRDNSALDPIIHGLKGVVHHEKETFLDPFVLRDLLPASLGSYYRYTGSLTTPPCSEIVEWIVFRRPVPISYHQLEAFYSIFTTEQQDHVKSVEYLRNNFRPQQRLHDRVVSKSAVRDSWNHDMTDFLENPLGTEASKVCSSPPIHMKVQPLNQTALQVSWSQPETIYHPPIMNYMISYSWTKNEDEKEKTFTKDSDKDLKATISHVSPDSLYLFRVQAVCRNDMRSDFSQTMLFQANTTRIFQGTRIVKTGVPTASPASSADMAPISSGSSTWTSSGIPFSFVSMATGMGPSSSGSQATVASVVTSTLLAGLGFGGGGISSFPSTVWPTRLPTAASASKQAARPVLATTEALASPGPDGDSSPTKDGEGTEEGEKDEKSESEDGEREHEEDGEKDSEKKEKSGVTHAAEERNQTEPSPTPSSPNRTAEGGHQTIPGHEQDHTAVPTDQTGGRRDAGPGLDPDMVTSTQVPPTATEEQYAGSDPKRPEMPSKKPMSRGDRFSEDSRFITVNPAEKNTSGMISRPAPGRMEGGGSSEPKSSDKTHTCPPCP

T2: SLAMF7
T2 construct: coated protein in the ELISA; also called SLAMF7-StrepTag
T2 chain: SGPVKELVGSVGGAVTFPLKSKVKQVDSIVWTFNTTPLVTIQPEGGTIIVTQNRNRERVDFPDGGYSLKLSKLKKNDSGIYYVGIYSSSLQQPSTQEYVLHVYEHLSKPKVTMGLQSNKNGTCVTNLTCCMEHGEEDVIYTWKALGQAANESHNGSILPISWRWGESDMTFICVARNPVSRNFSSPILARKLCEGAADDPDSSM

T3: IGSF11 (VSIG3)
T3 construct: coated protein in the ELISA; also called IGSF11-Fc (R&D Systems)
T3 chain: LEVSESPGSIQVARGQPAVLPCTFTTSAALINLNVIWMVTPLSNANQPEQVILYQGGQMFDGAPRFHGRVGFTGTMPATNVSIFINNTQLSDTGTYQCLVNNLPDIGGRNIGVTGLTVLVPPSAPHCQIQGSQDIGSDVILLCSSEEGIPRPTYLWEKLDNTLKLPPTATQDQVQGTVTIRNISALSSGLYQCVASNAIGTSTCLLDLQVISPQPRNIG

T4: ANXA1
T4 construct: coated protein in the ELISA; also called ANXA1-His (R&D Systems)
T4 chain: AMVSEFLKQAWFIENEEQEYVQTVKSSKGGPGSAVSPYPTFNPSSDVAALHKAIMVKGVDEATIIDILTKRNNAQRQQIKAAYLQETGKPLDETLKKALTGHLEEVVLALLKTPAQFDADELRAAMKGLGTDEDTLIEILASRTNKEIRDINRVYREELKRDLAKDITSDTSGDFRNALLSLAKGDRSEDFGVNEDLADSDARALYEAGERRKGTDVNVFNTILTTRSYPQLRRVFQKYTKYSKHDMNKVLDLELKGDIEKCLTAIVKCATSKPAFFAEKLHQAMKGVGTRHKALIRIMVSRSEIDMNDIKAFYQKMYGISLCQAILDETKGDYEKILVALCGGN


Tests used:
[1] = molecular target: T1, PTPRG-Fc (ECD of human PTPRG, aa …); assay: ELISA on coated PTPRG-Fc, 150 ng IgG1; None 0.117
Experimental: (§1) Recombinant purified ECDs (50-150 ng) of each putative target protein were coated, incubated with 150 ng of the indicated primary antibody, and binding was detected using a peroxidase-conjugated anti-human Fab secondary antibody. Heatmap represents averages of technical triplicates. (8B) Target validation via siRNA knockdown. H929 cells were transfected with siRNA pools targeting the putative antibody targets ICAM1, CADM1, and PTPRG. Cells were then subjected to cognate IgG binding analysis via flow cytometry. (NT, non-targeting siRNA).
(§2) ELISA ELISA was conducted as described previously. Briefly, 50-150 ng of antigen was coated overnight in half-area 96-well plates at 4° C., blocked with 3% BSA at 37° C. for 1 h, and 150 ng of chimeric rabbit/human IgG1 was added, incubating for 2 h at 37° C. […] After incubating at 37° C. for 15 min-1 h (depending on intensity of controls), data were acquired using a SpectraMax M5 plate reader (Molecular Devices).

SLAMF7 = molecular target: T2, SLAMF7; assay: ELISA on coated SLAMF7-StrepTag, 150 ng IgG1; None 0.047
Experimental: as §1, §2

IGSF11 (VSIG3) = molecular target: T3, IGSF11 (VSIG3); assay: ELISA on coated IGSF11-Fc, 150 ng IgG1; None 0.090
Experimental: as §1, §2

PTP4A3 (PRL-3) = molecular target: T5, PTP4A3 (PRL-3); assay: ELISA on coated His-PTP4A3, 150 ng IgG1; None 0.085
T5 construct: coated protein in the ELISA; also called His-PTP4A3 (R&D Systems)
Experimental: as §1, §2

ANXA1 = molecular target: T4, ANXA1; assay: ELISA on coated ANXA1-His, 150 ng IgG1; None 0.098
Experimental: as §1, §2

T5 sequence (chain, as listed by the source limits assumed): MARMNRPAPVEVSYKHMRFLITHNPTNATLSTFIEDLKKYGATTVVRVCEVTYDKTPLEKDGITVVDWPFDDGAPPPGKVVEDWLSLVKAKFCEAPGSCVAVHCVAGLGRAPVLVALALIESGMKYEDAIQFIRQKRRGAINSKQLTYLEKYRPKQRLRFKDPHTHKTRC

| Binder | ELISA Absorbance (405 nm-570 nm) [1] | ELISA Absorbance (405 nm-570 nm) (SLAMF7) | ELISA Absorbance (405 nm-570 nm) (IGSF11 (VSIG3)) | ELISA Absorbance (405 nm-570 nm) (PTP4A3 (PRL-3)) | ELISA Absorbance (405 nm-570 nm) (ANXA1) |
| --- | --- | --- | --- | --- | --- |
| HW-16 chimeric rabbit-human IgG1 LA/LA/PG (antibody, V domains shown, Fc-silenced (L234A/L235A/P329G) IgG1, kappa; Alexa Fluor 647-labeled in single-step flow cytometry; Cluster C-45) VH: QSLEESGGRLVTPGTPLTLTCTASGFSLSSYAMSWVRQAPGKGLEWIGTMPTGGGTYYASWAKGRFTISKTSTTVDLQITSPTTEDTATYFCAKHWNIWGPGTLVTISS VL: DIVLTQTPSSTSTAVGDTVTINCRASQSIGRNLAWFQQKPGQPPKLLIYRASNLASGVPSRFKGSGSRTQFTLTISGVQREDAATYYCLGSYSSSDTAFGGGTELEILR |  |  | 0.087 | 0.105 | 0.111 |
| HW-8 chimeric rabbit-human IgG1 LA/LA/PG (antibody, V domains shown, Fc-silenced (L234A/L235A/P329G) IgG1, kappa; Alexa Fluor 647-labeled in single-step flow cytometry; Cluster C-45) VH: QSLEESGGRLVTPGTPLTLTCTVSGFSLSSYAMSWVRQAPGKGLEWIGAISTGGSTTYASWAKGRFTISKTSSTTVDLKMTSLTTEDTATYFCVRHFRLWGPGTLVTISS VL: QVLTQTPSSVSAAVGGTVTIKCQASQSIGSALAWFQQKPGQRPKLLIYRASNLASGVPSRFKGSGSGTEFALTISGVQREDAATYYCLGGAAAVWAFGAGTNVEIKR | 0.069 | 0.049 | 0.069 | 0.075 | 0.077 |
| HW-42 chimeric rabbit-human IgG1 LA/LA/PG (antibody, V domains shown, Fc-silenced (L234A/L235A/P329G) IgG1, lambda; Alexa Fluor 647-labeled in single-step flow cytometry; Cluster C-1) VH: QSVKESEGGLFKPADTLTLTCTVSGFSLSSNEISWVRQAPGEGLEYIGIIDTGGRAYYAVWARSRSTITRNTNLNTVTLKMTSLTAADTATYFCARGGVDTEWYAFSSWGPGTLVTVPS VL: SFVLTQPASVQVNLGQTVSLTCTADTLSRRYASWYQQKPGQAPVLLIFRDTSRPSGVPDRFSGSSSGDTATLTISGAQAGDEADYYCATSDGSGSNYQYVFGGGTQLTVTG | 0.341 | 0.054 | 0.088 | 0.096 | 0.103 |
| HW-25 chimeric rabbit-human IgG1 LA/LA/PG (antibody, V domains shown, Fc-silenced (L234A/L235A/P329G) IgG1, lambda; Alexa Fluor 647-labeled in single-step flow cytometry; Cluster C-1) VH: QSLEESGGRLVTPGTPLTLTCTVSGFSLSSYAMGWVRQAPGKGLEWIGIIDSRGSTYYATWAKGRFTISKTSTTVDLKITSPTTEDTATYFCAREDSYYYDSFNLWGPGTLVTVSS VL: SFVLTQPASVQVNLGQTVSLTCTADTLSRRYASWYQQKPGQAPVLLIYRDTSRPSGVPDRFSGSSSGNTATLTISGAQAGDEADYYCATSDGSGSSYQCVFGGGTQLTVTG | 0.784 | 0.054 | 0.07 | 0.079 | 0.065 |
| HW-17 chimeric rabbit-human IgG1 LA/LA/PG (antibody, V domains shown, Fc-silenced (L234A/L235A/P329G) IgG1, lambda; Alexa Fluor 647-labeled in single-step flow cytometry; Cluster C-1) VH: QSLGESRGRLVTPDETLTLTCTVSGIDLSSNAMSWVRQAPGEGLEWIGTINTGGRAYYASWAKGRFTISRTSTTVDLKMTSLTTEDTATYFCARERYSDGRAYDIWGPGTLVTISS VL: SFVLTQPASVQVNLGQTVSLTCTADTLSRRYASWYQQKPGQAPVLLIYTDSNRPSGIPDRFSGSSSGNTATLTISGAQAGDEADYYCATDDGSGSIYQYVFGGGTQLTVTG | 0.756 | 0.053 | 0.094 | 0.072 | 0.073 |
| HW-28 chimeric rabbit-human IgG1 LA/LA/PG (antibody, V domains shown, Fc-silenced (L234A/L235A/P329G) IgG1, lambda; Alexa Fluor 647-labeled in single-step flow cytometry; Cluster C-45) VH: QKQLVESGGRLVTPGTPLTLTCTASGFSLSSNAMSWVRQAPGEGLQWIGTISSGGSTYYASWAKGRFTISKTSTTVTLKMTSLTTEDTATYFCARGADLHRLWGPGTLVTVSS VL: SFVLTQPASVQVNLGQTVSLTCTGKPLSRSFASWYQQKPGQAPVLVIYRDTSRPSGVPDRFSGSSSGNTATLTISGAQAGDEADYYCATSDGSGSSYQYVFGGGTQLTVTG | 0.121 |  | 0.11 |  | 0.153 |
| HW-1 chimeric rabbit-human IgG1 LA/LA/PG (antibody, V domains shown, Fc-silenced (L234A/L235A/P329G) IgG1, lambda; Alexa Fluor 647-labeled in single-step flow cytometry; Prototype of cluster C-1) VH: QSLEESGGGLFKPTDTLTLTCTASGFSLGSSYAISWVRQAPGKELEWIGTIDSGRAYYARWAKSRSTITRNTNENTVTLKMTSLTAADTATYFCARDLIPTYSQDIWGPGTLVTISS VL: SFVLTQPASVQVNLGQTVSLTCTADTLSRRYASWYQQKPGQAPVLLIYRDTSRPSGVPDRFSGSSSGNTATLTISGAQAGDEADYYCATSDGSGNSYQYVFGGGTQLTVTS | 0.756 | 0.053 | 0.074 | 0.081 | 0.085 |

The next lines start with the values.

| ELISA Absorbance (405 nm-570 nm) [1] | ELISA Absorbance (405 nm-570 nm) (SLAMF7) | ELISA Absorbance (405 nm-570 nm) (IGSF11 (VSIG3)) | ELISA Absorbance (405 nm-570 nm) (PTP4A3 (PRL-3)) | ELISA Absorbance (405 nm-570 nm) (ANXA1) | Binder |
| --- | --- | --- | --- | --- | --- |
| 0.102 | 0.074 | 0.076 | 0.104 | 0.082 | HW-56 chimeric rabbit-human IgG1 LA/LA/PG (antibody, V domains shown, Fc-silenced (L234A/L235A/P329G) IgG1, kappa; Alexa Fluor 647-labeled in single-step flow cytometry; Cluster C-45) VH: QSVKESEGGLFKPTDTLTLTCTASGFTVSTNAVTWVRQAPGNGLEYIGTIGRSGSAYFASWAKRRSTLTRDINLNTVTLKMTSLTAADTATYFCVRGSPGYRTAISIWGPGTLVTISS VL: AVMTQTPSSTSAAVEGTVTINCQASQSISNRLSWFQQKPGQPPKLLIYQASTLASGVPSRFKGSGSGTEFTLTISGVQREDAATYYCLGSYSSSDASFGGGTKLEIKR |
| 0.29 | 0.047 | 0.085 | 0.092 | 0.102 | HW-70 chimeric rabbit-human IgG1 LA/LA/PG (antibody, V domains shown, Fc-silenced (L234A/L235A/P329G) IgG1, lambda; Alexa Fluor 647-labeled in single-step flow cytometry; Cluster C-1) VH: QSLEESGGRLVTPGTPLTLTCTVSGFSLSSNAMSWVRQAPGKGLEWIGTIDGYGYTYYASWAKGRFTVSKTSTTVDLKITSPTTEDTATYFCAREIYLGSNFWGPGTLVTISS VL: SFVLTQPASVQVNLGQTVSLTCTADTLSRRYASWYQQKPGQAPVLLIYRDTSRPSGVPDRFSGSSSGNTATLTISGAQAGDEADYYCATADGSGSSYQFVFGGGTQLTVTG |
| 0.106 | 0.052 | 0.08 | 0.092 | 0.09 | TH9-0022 (antibody, human IgG1, kappa, L234A L235A, V domains shown, also called TH9-022; negative control) VH: QSLEESGGRLVTPGTPLTLTCTVSGFSLSSYAMNWVRQAPGKGLEWIGIINSYGSTYYASWAKGRFTISKTSTTVDLKITSPTTEDTATYFCARVTYDSYGYGYAPYGMDLWGPGTLVTVSS VL: LVMTQTPSSTSNAVGGTVTIKCQASQSIGNVLAWYQQKPGQPPKLLIYAASTLASGVPSRVGGSRSGTEYTLTISGVQREDAATYYCLGSDSDSDIAFGGGTELEILR |
